Laboratory results taken from FireProtDB (doi:10.1002/pro.5560010709).

B1: Ribonuclease pancreatic, P61823 (parent)
chain: MALKSLVLLSLLVLVLLLVRVQPSLGKETAAAKFERQHMDSSTSAASSSNYCNQMMKSRNLTKDRCKPVNTFVHESLADVQAVCSQKNVACKNGQTNCYQSYSTMSITDCRETGSSKYPNCAYKTTQANKHIIVACEGNPYVPVHFDASV

Variants of: B1
Conditions: Bos taurus, pH 4.2, Thermal, CD, Sodium acetate 0.01 M, NaCl 0.1 M, reversible: yes, structure 1RTB, whole UniProt chain shown; for ddG of mutation (higher = less stable) / heat capacity change of unfolding: 56.2 °C

P140A
ddG of mutation (higher = less stable): 3.2 kcal/mol
heat capacity change of unfolding: 2.2 kcal/mol/K
Tm: 45.5 °C
change of melting temperature, mutant - wild type (higher = more stable): -10.5 °C

P140G
ddG of mutation (higher = less stable): 2.8 kcal/mol
heat capacity change of unfolding: 2.2 kcal/mol/K
Tm: 45.5 °C
change of melting temperature, mutant - wild type (higher = more stable): -10.5 °C

P119S
ddG of mutation (higher = less stable): 2.1 kcal/mol
heat capacity change of unfolding: 2.2 kcal/mol/K
Tm: 47.5 °C
change of melting temperature, mutant - wild type (higher = more stable): -8.5 °C

P119A
ddG of mutation (higher = less stable): 2.7 kcal/mol
heat capacity change of unfolding: 2.2 kcal/mol/K
Tm: 46.5 °C
change of melting temperature, mutant - wild type (higher = more stable): -9.5 °C

P119A P140G
ddG of mutation (higher = less stable): 4.2 kcal/mol
heat capacity change of unfolding: 2.2 kcal/mol/K
Tm: 36 °C
change of melting temperature, mutant - wild type (higher = more stable): -20 °C
